Consider 1 molecule from patent publication US20050227302A1, “Induction of apoptosis via ARTS-IAP complexes” (priority 2004, published 2005).

Assay [1] concerns HL-60 cells. The assay is described as follows: Caspase 3 activity assay in ARTS-transfected HL-60 cells. In kind it is cell-based. The procedure:
(§1) K562 and HL-60 cells were grown in RPMI 1640 medium. A549, COS-7 cells were grown in Dulbecco's modified Eagle medium (DMEM) with 4.5 grams/liter (g/L) D-glucose. All cells were grown at 37° C. in a 5% CO2 atmosphere. All media were supplemented with 10% fetal calf serum (FCS), penicillin (100 U/ml), streptomycin (100 micrograms (μg)/ml) and […] millimolar [mM]) (Biological Industries, Israel). pEF1-AU5 and pEF1-AU5-ARTS constructs were used for all ARTS transient transfection experiments. An AU5 tag was attached to the N' terminus of ARTS as described in ([…] et al, Nat Cell Biol 2: 915-921, 2000). The […] construct was generated by replacing three amino acids ([…]) at the GTP binding site, using site-directed mutagenesis (QuickChangeTM, Stratagene) with the primer: [NT] No: 1). COS-7, K562 and HL-60 cells were transiently transfected using electroporation (EasyjectTM plus-Equibio). A549 cells were transiently transfected using lipofectaminTM (Invitrogen) according to the manufacturer's protocol. The following apoptotic agents were used: TGF-beta (10 ng/ml) for 24 hours in medium containing 1% FCS; […] etoposide for 2 or 16 hours (Sigma); staurosporine (STS) ([…]) for 0-3 hours (Sigma); and arabinoside-c (ara-C, cytosar) (Pharmacia) at […] for 4 hours. In the case of transiently transfected cells, agents were added forty hours after transfections. […]

Assay [2] deals with K562 cells. The experiment in a line: Caspase 3 activity assay in ARTS-transfected K562 cells. In kind it is cell-based. How it is done: as §1
The target in assay [3] is T1, XIAP (Homo sapiens, UniProt P98170).
T1 construct: made in house; host or cells: bacteria (pGEX-XIAP plasmid obtained from Dr. Colin S. Duckett)
T1 sequence (P98170 whole entry): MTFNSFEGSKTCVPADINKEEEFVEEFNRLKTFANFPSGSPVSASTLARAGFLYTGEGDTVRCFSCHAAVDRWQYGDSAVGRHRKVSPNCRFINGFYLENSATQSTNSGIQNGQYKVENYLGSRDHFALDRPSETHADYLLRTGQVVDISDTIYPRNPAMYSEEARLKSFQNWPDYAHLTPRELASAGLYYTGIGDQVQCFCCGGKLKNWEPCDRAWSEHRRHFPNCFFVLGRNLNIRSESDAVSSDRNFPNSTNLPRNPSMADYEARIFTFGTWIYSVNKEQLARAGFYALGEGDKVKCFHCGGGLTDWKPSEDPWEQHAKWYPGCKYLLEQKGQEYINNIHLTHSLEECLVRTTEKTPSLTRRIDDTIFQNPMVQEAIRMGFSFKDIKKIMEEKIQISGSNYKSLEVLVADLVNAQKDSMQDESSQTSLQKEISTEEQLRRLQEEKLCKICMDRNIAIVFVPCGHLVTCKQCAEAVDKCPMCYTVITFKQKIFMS
The assay is described as follows: In vitro binding assay, recombinant ARTS with GST-XIAP. The following applies: GST-XIAP and purified recombinant ARTS protein, GST alone as negative control. The procedure: Recombinant ARTS protein was generated with the TNT-Quick Coupled Transcription/Translation System™ (Promega) and incubated overnight at 4° C. with either recombinant GST-XIAP bound to glutathione beads, or with GST alone bound to glutathione beads, followed by Western blot with anti-ARTS or anti-GST antibody (Gibco).

For assay [4], the target named is T2, Myc epitope-tagged wild-type XIAP (Homo sapiens (Human), UniProt P98170 1-497).
T2 construct: Expressed by transient transfection in COS-7 cells and used as cell lysate; The construct came from Dr. Colin S. Duckett; also called myc-tagged XIAP; mycXIAP
T2 sequence (P98170 whole entry): as above
The assay is described as follows: immunofluorescence co-localization by confocal microscopy in COS-7 cells transfected with AU5-ARTS and pcDNA3-Myc-XIAP, treated with etoposide. The procedure:
FIG. 5. ARTS and XIAP co-localize during apoptosis. Immunofluorescence assay of COS-7 cells with anti-ARTS antibody (left column) and anti-XIAP antibody (second column from left). Nuclei are stained with Dapi (third column from left). Merged images are shown in the right column. Cells were untreated (top panel) or treated with […] etoposide for 2 hours (middle panel) or 16 hours (lower panel). Cells were analyzed using confocal microscopy (magnification 60). Non-apoptotic cells had very little overlap between ARTS and XIAP staining (top panel), with ARTS primarily localized to mitochondria and XIAP staining cytoplasmic, with some peri-nuclear concentration. Two hours after induction of apoptosis, co-localization of ARTS and XIAP occurred primarily near the nucleus (middle panel). After 16 hr both proteins perfectly co-localized in the nucleus.
To confirm the finding that ARTS-XIAP complexes exist in apoptotic cells, COS-7 cells transfected with AU5-ARTS and pcDNA3-Myc-XIAP were visualized by confocal microscopy. Apoptosis was induced with etoposide, and cells were stained after 2 and 16 hours. In non-apoptotic cells, ARTS and XIAP had distinct, essentially non-overlapping distributions, with ARTS primarily localized to mitochondria, whereas XIAP was localized to the cytoplasm, with some peri-nuclear concentration (FIG. 5, top panel). […]

For assay [5], the system named is COS-7 cells. The experiment in a line: Apoptosis assays (TUNEL, anti-H2A.X) in COS-7 cells. In kind it is cell-based, African Green Monkey. The following applies: COS-7 cells stably transfected with an ARTS construct. How it is done:
Apoptotic cells were detected using the anti-H2A.X antibody (Upstate; Paull, et al., 2000) or TUNEL. For TUNEL assays, COS-7 cells were transiently transfected with AU5-ARTS, AU5-ARTSΔC, AU5-ARTSmGTP and AU5-H5. Twenty-four hours after transfection, the cells were treated with staurosporine (STS) ([…]) for 1 or 3 hours, then fixed and permeabilized. Apoptosis levels were determined using the TUNEL. In situ™ cell death detection TMR kit (Roche) according to the manufacturer's protocol. All slides were coded and experiments were performed in a blind manner.
Stably transfected COS-7 pE-ARTS cells were generated using the pEF1-IRES vector (Hobbs S et al, Biochem Biophys Res Commun 252: 368-372, 1998). The construct contains an EF-1 promoter followed by a multi cloning site, an EMC (Encephalomyocarditis virus) internal ribosome entry sites (IRES), and a puromycin resistance gene. AU5-tagged ARTS was inserted into the XhoI site downstream of the EF-1 promoter. The construct was stably transfected into COS-7 cells. The cells were maintained in medium containing 4 μg/ml puromycin.

B1: AU5-ARTS (other)
chain: MIKRFLEDTTDDGELSKFVKDFSGNASCHPPEAKTWASRPQVPEPRPQAPDLYDDDLEFRPPSRPQSSDNQQYFCAPAPLSPSARPRSPWGKLDPYDSSEDDKEYVGFATLPNQVHRKSVKKGFDFTLMVAGESGLGKSTLVNSLFLTDLYRDRKLLGAEERIMQTVEITKHAVDIEEKGVRLRLTIVDTPGFGDAVNNTECWKPVAEYIDQQFEQYFRDESGLNRKNIQDNRVHCCLYFISPFGHGYGPSLRLLAPPGAVKGTGQEHQGQGCH
notes: Expressed in transfected COS-7 cells and used as lysate or stained in cells; also called pEF1-AU5-ARTS; AU5-tagged ARTS; not shown: AU5 tag attached to the N' terminus of ARTS
With B1, the caspase-3 activity result is given as “increased caspase-3 activity” in assay [1] (expression of ARTS in the absence of pro-apoptotic stimuli, HL-60 cells); “increased caspase-3 activity” in assay [1] (over-expression of ARTS, HL-60 cells treated with ara-C); “little or no effect” in assay [2] (expression of ARTS in the absence of pro-apoptotic stimuli, K562 cells); “increased caspase-3 activity” in assay [2] (over-expression of ARTS, K562 cells treated with ara-C). Further, in assay [3], the “ARTS-XIAP binding, direct or not” value is listed as “direct”. Further, the binding result in assay [4] is “binds”. The “apoptotic marker H2A.X” value in assay [5] is given as “high levels of the apoptotic marker H2A.X”.
